Data: the supplement of paper PMC11246515
± gives the standard deviation of the averaged measurements.

Experiment: total protein half-life in vivo (active degradation + dilution); higher = more stable protein
[1] = E. coli NCM3722 delta-clpP delta-lon delta-hslV, growth: N-lim chemostat, doubling time 6 h
[2] = E. coli NCM3722 delta-clpP, growth: N-lim chemostat, doubling time 6 h
[3] = E. coli NCM3722 delta-hslV, growth: N-lim chemostat, doubling time 6 h
[4] = E. coli NCM3722 delta-lon, growth: N-lim chemostat, doubling time 6 h
[5] = E. coli NCM3722 delta-smpB, growth: N-lim chemostat, doubling time 6 h
[6] = wild type E. coli NCM3722, growth: C-lim chemostat, doubling time 3 h
[7] = wild type E. coli NCM3722, growth: C-lim chemostat, doubling time 6 h
[8] = wild type E. coli NCM3722, growth: C-lim chemostat, doubling time 12 h
[9] = wild type E. coli NCM3722, growth: N-lim chemostat, doubling time 6 h
[10] = wild type E. coli NCM3722, growth: N-lim chemostat, doubling time 12 h
[11] = wild type E. coli NCM3722, growth: P-lim chemostat, doubling time 6 h
[12] = wild type E. coli NCM3722, growth: P-lim chemostat, doubling time 12 h

## MNTLRIGLVSISDRASSGVYQDKGIPALEEWLTSALTTPFELETRLIPDEQAIIEQTLCELVDEMSCHLVLTTGGTGPARRDVTPDATLAVADREMPGFGEQMRQISLHFVPTAILSRQVGVIRKQALILNLPGQPKSIKETLEGVKDAEGNVVVHGIFASVPYCIQLLEGPYVETAPEVVAAFRPKSARRDVSE [P0AF03]
[1]
  total protein half-life in vivo: 4.79 ± 0.77 h
[2]
  total protein half-life in vivo: 4.24 ± 0.53 h
[3]
  total protein half-life in vivo: 4.594 ± 0.04 h
[4]
  total protein half-life in vivo: 5.05 ± 0.59 h
[5]
  total protein half-life in vivo: 4.82 ± 0.54 h
[6]
  total protein half-life in vivo: 2.8 ± 0.21 h
[7]
  total protein half-life in vivo: 5.83 ± 0.49 h
[8]
  total protein half-life in vivo: 9.32 ± 0.82 h
[9]
  total protein half-life in vivo: 4.61 ± 0.27 h
[10]
  total protein half-life in vivo: 8.09 ± 0.46 h
[11]
  total protein half-life in vivo: 5.41 ± 0.4 h
[12]
  total protein half-life in vivo: 11.3 ± 0.16 h

## MNTRWQQAGQKVKPGFKLAGKLVLLTALRYGPAGVAGWAIKSVARRPLKMLLAVALEPLLSRAANKLAQRYKR [P0AFV8]
[1]
  total protein half-life in vivo: 3.32 ± 0.39 h

## MNTSHVRVVTHMCGFLVWLYSLSMLPPMVVALFYKEKSLFVFFITFVIFFCIGGGAWYTTKKSGIQLRTRDGFIIIVMFWILFSVISAFPLWIDSELNLTFIDALFEGVSGITTTGATVIDDVSSLPRAYLYYRSQLNFIGGLGVIVLAVAVLPLLGIGGAKLYQSEMPGPFKDDKLTPRLADTSRTLWITYSLLGIACIVCYRLAGMPLFDAICHGISTVSLGGFSTHSESIGYFNNYLVELVAGSFSLLSAFNFTLWYIVISRKTIKPLIRDIELRFFLLIALGVIIVTSFQVWHIGMYDLHGSFIHSFFLASSMLTDNGLATQDYASWPTHTIVFLLLSSFFGGCIGSTCGGIKSLRFLILFKQSKHEINQLSHPRALLSVNVGGKIVTDRVMRSVWSFFFLYTLFTVFFILVLNGMGYDFLTSFATVAACINNMGLGFGATASSFGVLNDIAKCLMCIAMILGRLEIYPVIILFSGFFWRS
[2]
  total protein half-life in vivo: > 8 h
[3]
  total protein half-life in vivo: 5.64 ± 0.43 h
[5]
  total protein half-life in vivo: 6.77 h
[6]
  total protein half-life in vivo: > 4 h
[8]
  total protein half-life in vivo: 13.5 h
[10]
  total protein half-life in vivo: > 16 h
[11]
  total protein half-life in vivo: > 8 h

## MNTTPSQRLGFLHHIRLVPLFACILGGILVLFALSSALAGYFLWQADRDQRDVTAEIEIRTGLANSSDFLRSARINMIQAGAASRIAEMEAMKRNIAQAESEIKQSQQGYRAYQNRPVKTPADEALDTELNQRFQAYITGMQPMLKYAKNGMFEAIINHESEQIRPLDNAYTDILNKAVKIRSTRANQLAELAHQRTRLGGMFMIGAFVLALVMTLITFMVLRRIVIRPLQHAAQRIEKIASGDLTMNDEPAGRNEIGRLSRHLQQMQHSLGMTVGTVRQGAEEIYRGTSEISAGNADLSSRTEEQAAAIEQTAASMEQLTATVKQNADNAHHASKLAQEASIKASDGGQTVSGVVKTMGAISTSSKKISEITAVINSIAFQTNILALNAAVEAARAGEQGRGFAVVASEVRTLASRSAQAAKEIEGLISESVRLIDLGSDEVATAGKTMSTIVDAVASVTHIMQEIAAASDEQSRGITQVSQAISEMDKVTQQNASLVEEASAAAVSLEEQAARLTEAVDVFRLHKHSVSAEPRGAGEPVSFATV
[6]
  total protein half-life in vivo: 2.39 ± 0.0043 h
[7]
  total protein half-life in vivo: 4.42 ± 0.23 h
[8]
  total protein half-life in vivo: 6.36 ± 0.25 h

## MNVIAILNHMGVYFKEEPIRELHRALERLNFQIVYPNDRDDLLKLIENNARLCGVIFDWDKYNLELCEEISKMNENLPLYAFANTYSTLDVSLNDLRLQISFFEYALGAAEDIANKIKQTTDEYINTILPPLTKALFKYVREGKYTFCTPGHMGGTAFQKSPVGSLFYDFFGPNTMKSDISISVSELGSLLDHSGPHKEAEQYIARVFNADRSYMVTNGTSTANKIVGMYSAPAGSTILIDRNCHKSLTHLMMMSDVTPIYFRPTRNAYGILGGIPQSEFQHATIAKRVKETPNATWPVHAVITNSTYDGLLYNTDFIKKTLDVKSIHFDSAWVPYTNFSPIYEGKCGMSGGRVEGKVIYETQSTHKLLAAFSQASMIHVKGDVNEETFNEAYMMHTTTSPHYGIVASTETAAAMMKGNAGKRLINGSIERAIKFRKEIKRLRTESDGWFFDVWQPDHIDTTECWPLRSDSTWHGFKNIDNEHMYLDPIKVTLLTPGMEKDGTMSDFGIPASIVAKYLDEHGIVVEKTGPYNLLFLFSIGIDKTKALSLLRALTDFKRAFDLNLRVKNMLPSLYREDPEFYENMRIQELAQNIHKLIVHHNLPDLMYRAFEVLPTMVMTPYAAFQKELHGMTEEVYLDEMVGRINANMILPYPPGVPLVMPGEMITEESRPVLEFLQMLCEIGAHYPGFETDIHGAYRQADGRYTVKVLKEESKK [P0A9H3]
[2]
  total protein half-life in vivo: 5.68 h
[12]
  total protein half-life in vivo: 11.6 h

## MNVNFFVTCIGDALKSRMARDSVLLLEKLGCRVNFPEKQGCCGQPAINSGYIKEAIPGMKNLIAALEDNDDPIISPAGSCTYAVKSYPTYLADEPEWASRAAKVAARMQDLTSFIVNKLGVVDVGASLQGRAVYHPSCSLARKLGVKDEPLTLLKNVRGLELLTFAEQDTCCGFGGTFSVKMAEISGEMVKEKVAHLMEVRPEYLIGADVSCLLNISGRLQREGQKVKVMHIAEVLMSR
[1]
  total protein half-life in vivo: 4.88 ± 0.35 h
[2]
  total protein half-life in vivo: 2.8 h
[3]
  total protein half-life in vivo: 3.22 ± 0.43 h
[4]
  total protein half-life in vivo: 4.91 h
[5]
  total protein half-life in vivo: 3.17 ± 0.06 h
[6]
  total protein half-life in vivo: 3.05 ± 0.46 h
[7]
  total protein half-life in vivo: 4.67 ± 0.46 h
[8]
  total protein half-life in vivo: 8.01 ± 0.23 h
[9]
  total protein half-life in vivo: 4.38 ± 0.39 h
[10]
  total protein half-life in vivo: 6.19 ± 1.3 h
[11]
  total protein half-life in vivo: 4.49 h
[12]
  total protein half-life in vivo: 8.05 ± 0.092 h

## MNVVILDTGCANLNSVKSAIARHGYEPKVSRDPDVVLLADKLFLPGVGTAQAAMDQVRERELFDLIKACTQPVLGICLGMQLLGRRSEESNGVDLLGIIDEDVPKMTDFGLPLPHMGWNRVYPQAGNRLFQGIEDGAYFYFVHSYAMPVNPWTIAQCNYGEPFTAAVQKDNFYGVQFHPERSGAAGAKLLKNFLEM
[1]
  total protein half-life in vivo: 5.66 ± 1.5 h
[2]
  total protein half-life in vivo: 4.08 ± 0.64 h
[3]
  total protein half-life in vivo: 4.08 ± 0.044 h
[4]
  total protein half-life in vivo: 4.11 ± 0.85 h
[5]
  total protein half-life in vivo: 4.11 ± 0.27 h
[6]
  total protein half-life in vivo: 3.16 ± 0.23 h
[7]
  total protein half-life in vivo: 5.31 ± 0.46 h
[8]
  total protein half-life in vivo: 10.5 ± 0.7 h
[9]
  total protein half-life in vivo: 4.46 ± 0.29 h
[10]
  total protein half-life in vivo: 7.8 ± 1.1 h
[11]
  total protein half-life in vivo: 5.78 ± 0.17 h
[12]
  total protein half-life in vivo: 11.3 ± 0.22 h

## MNYQMITTDDALASLCEAVRAFPAIALDTEFVRTRTYYPQLGLIQLFDGEHLALIDPLGITDWSPLKAILRDPSITKFLHAGSEDLEVFLNVFGELPQPLIDTQILAAFCGRPMSWGFASMVEEYSGVTLDKSESRTDWLARPLTERQCEYAAADVWYLLPITAKLMVETEASGWLPAALDECRLMQMRRQEVVAPEDAWRDITNAWQLRTRQLACLQLLADWRLRKARERDLAVNFVVREEHLWSVARYMPGSLGELDSLGLSGSEIRFHGKTLLALVEKAQTLPEDALPQPMLNLMDMPGYRKAFKAIKSLITDVSETHKISAELLASRRQINQLLNWHWKLKPQNNLPELISGWRGELMAEALHNLLQEYPQ
[1]
  total protein half-life in vivo: 4.11 ± 0.93 h
[2]
  total protein half-life in vivo: 4.41 ± 1.4 h
[3]
  total protein half-life in vivo: 3.88 ± 0.32 h
[4]
  total protein half-life in vivo: 4.79 ± 1.2 h
[5]
  total protein half-life in vivo: 3.65 ± 0.37 h
[6]
  total protein half-life in vivo: > 4 h
[7]
  total protein half-life in vivo: 5.23 ± 0.24 h
[8]
  total protein half-life in vivo: 10 ± 0.67 h
[9]
  total protein half-life in vivo: 3.834 ± 0.0071 h
[10]
  total protein half-life in vivo: 6.31 ± 1.4 h
[11]
  total protein half-life in vivo: 5.82 ± 0.58 h
[12]
  total protein half-life in vivo: 11.8 ± 1.5 h

## MPANARSHAVLTTESKVTIRGQTTIPAPVREALKLKPGQDSIHYEILPGGQVFMCRLGDEQEDHTMNAFLRFLDADIQNNPQKTRPFNIQQGKKLVAGMDVNIDDEIGDDE
[1]
  total protein half-life in vivo: 5.19 ± 0.069 h
[2]
  total protein half-life in vivo: 2.83 ± 0.037 h
[3]
  total protein half-life in vivo: 3.29 ± 0.22 h
[4]
  total protein half-life in vivo: 2.97 ± 0.61 h
[5]
  total protein half-life in vivo: 2.88 ± 0.047 h
[6]
  total protein half-life in vivo: > 4 h
[7]
  total protein half-life in vivo: 3.52 ± 0.75 h
[8]
  total protein half-life in vivo: 5.13 ± 1.2 h
[9]
  total protein half-life in vivo: 3.11 ± 0.63 h
[10]
  total protein half-life in vivo: 5.02 ± 0.3 h
[11]
  total protein half-life in vivo: 2.77 ± 0.39 h
[12]
  total protein half-life in vivo: 5.24 ± 0.056 h
